{"source": "the DeepSol protein solubility set"}
{"experiment": "soluble on expression in E. coli; label from the status in PepcDB or PDB records"}
{"sequence": "MGSSHHHHHHSSGLVPRGSHMARQNLKSTDRAVQQMLDKAKREGIQTVWDRYEAMKPQCGFGETGLCCRHCLQGPCRINPFGDEPKVGICGATAEVIVARGLDRSIAAGAAGHSGHAKHLAHTLKKAVQGKAASYMIKDRTKLHSIAKRLGIPTEGQKDEDIALEVAKAALADFHEKDTPVLWVTTVLPPSRVKVLSAHGLIPAGIDHEIAEIMHRTSMGCDADAQNLLLGGLRCSLADLAGCYMGTDLADILFGTPAPVVTESNLGVLKADAVNVAVHGHNPVLSDIIVSVSKEMENEARAAGATGINVVGICCTGNEVLMRHGIPACTHSVSQEMAMITGALDAMILDYQCIQPSVATIAECTGTTVITTMEMSKITGATHVNFAEEAAVENAKQILRLAIDTFKRRKGKPVEIPNIKTKVVAGFSTEAIINALSKLNANDPLKPLIDNVVNGNIRGVCLFAGCNNVKVPQDQNFTTIARKLLKQNVLVVATGCGAGALMRHGFMDPANVDELCGDGLKAVLTAIGEANGLGGPLPPVLHMGSCVDNSRAVALVAALANRLGVDLDRLPVVASAAEAMHEKAVAIGTWAVTIGLPTHIGVLPPITGSLPVTQILTSSVKDITGGYFIVELDPETAADKLLAAINERRAGLGLPW", "soluble on expression in E. coli": "soluble"}
{"sequence": "SENDVIELDDVANLMFYGEGEVGDNHQKFMLIFDTGSANLWVPSKKCNSIGCSTKHLYDSSKSKSYEKDGTKVEITYGSGTVRGFFSKDLVTLGYLSLPYKFIEVTDTDDLEPLYTAAEFDGILGLGWKDLSIGSIDPIVVELKNQNKIDQALFTFYLPVHDKHSGYLTIGGIEEKFYEGELTYEKLNHDLFWQVDLDVNFGKTSMEKANVIVDSGTSTITAPTSFINKFFKDLNVIKVPFLPFYITTCNNKDMPTLEFKSANNTYTLEPEYYMEPLLDIDDTLCMLYILPVDIDKNTFILGDPFMRKYFTVFDYDKESIGFAVAKN", "soluble on expression in E. coli": "soluble"}
{"sequence": "GSDLTYAYLVGLFEGDGYFSITKKGKYLTYELGIELSIKDVQLIYKIKKILGIGIVSFRKRNEIEMVALRIRDKNHLKSFILPIFEKYPMFSNKQYDYLRFRNALLSGIISLEDLPDYTRSDEPLNSIESIINTSYFSAWLVGFIEAEGCFSVYKLNKDDDYLIASFDIAQRDGDILISAIRKYLSFTTKVYLDKTNCSKLKVTSVRSVENIIKFLQNAPVKLLGNKKLQYLLWLKQLRKISRYSEKIKIPSNY", "soluble on expression in E. coli": "soluble"}
{"sequence": "MSQPPLLSGPGGRLLGAALLIGLLAGCGSVSTGNAGSGTVGTSTTSRADVMTFQPSSLPVSYVGETYNVQVGVTGGVGPYGYRLTAGTLPPGLKFAGGALSGTPTKAGSYSFAIQATDANLSTRVQEYTMNVDALPPLALKPTLPPGEIRGETRIPVTIQAPRAVRAARLSWDLGKDVQVTRVQPADAGSVVFWQQRGSVLTVDLGFRTVPRPDARIALITVKPAKAVTLKADALGYEARDGSGKMLVDKKRPGSEPVKPAEQPGDPKVDPKAADQKATDQKATDPKTVDPKTVTPADTVEGGPLPSPALPTPSLPPTLPPVTTPPANTPPVPTPTPPANQPAPAPAPQPAPAPQPTPPSGTGGALEHHHHHH", "soluble on expression in E. coli": "soluble"}
{"sequence": "GMVEKPQLKFKSPIDNSESHPFIPLLKEKPNALKPLSESLRLVDDDENNPSHYPHPYEYEIDHQEYSPEILQIREEIPSKSWDDSVPIWVDTSTELESMLEDLKNTKEIAVDLEHHDYRSYYGIVCLMQISTRERDYLVDTLKLRENLHILNEVFTNPSIVKVFHGAFMDIIWLQRDLGLYVVGLFDTYHASKAIGLPRHSLAYLLENFANFKTSKKYQLADWRIRPLSKPMTAAARADTHFLLNIYDQLRNKLIESNKLAGVLYESRNVAKRRFEYSKYRPLTPSSEVYSPIEKESPWKILMYQYNIPPEREVLVRELYQWRDLIARRDDESPRFVMPNQLLAALVAYTPTDVIGVVSLTNGVTEHVRQNAKLLANLIRDALRNIKNTNEEATPIPSSETKADGILLET", "soluble on expression in E. coli": "soluble"}
{"sequence": "LENPLYYLHNFRQVLNWLQLRYADVLSADEQRFILDFAQLAEPSQALLVRMVMRKGRHFRLSKLSYPEIGDSAAALEPLLALGWVDEQAPLCLEELFGLLQKAEILQCFNGLAAKARKDQWLEELTQQGLAPQAFAQWCPALPDRLLSLTLMPLCDRLRLMFFGNLYQDWSEFVLADLGIYSYEKVEISADARGLRSREDVDGFLYLHECQEAFEAGAELPEVLAHIARFQTLNPWLEKRRAKLLFQLGQQCERLAQWALARQIYQECAYPGARSRLIRVLERSAQYQAALALAEQAAAAPESAAEAQHLLRIMPRLRRKLGGPPAPRAANREVQRLDLCLARDADGLAVELHVQAHLHQPQAPVHYVENSLINSLFGLLCWPAIFAPLPGAFFHPFQRGPVDLFSEDFHQRRSELFQACLAELDDGRYRQSIRQRFVAKWGLQSPFVFWGALSEELLDQALDCLPAEHLKHWFQRLLLDIKANRAGMPDLIQFWPEQKRYRMIEVKGPGDRLQDNQLRWLDFCQEHRMPVAVCYVQWQ", "soluble on expression in E. coli": "not soluble"}
{"sequence": "SPEFMVKAKSWTLKKHFQGKPTQSDFELKTVELPPLKNGEVLLEALFLSVDPYMRIASKRLKEGAVMMGQQVARVVESKNSAFPAGSIVLAQSGWTTHFISDGKGLEKLLTEWPDKLPLSLALGTIGMPGLTAYFGLLEVCGVKGGETVLVSAAAGAVGSVVGQIAKLKGCKVVGAAGSDEKIAYLKQIGFDAAFNYKTVNSLEEALKKASPDGYDCYFDNVGGEFLNTVLSQMKDFGKIAICGAISVYNRMDQLPPGPSPESIIYKQLRIEGFIVYRWQGDVREKALRDLMKWVLEGKIQYHEHVTKGFENMPAAFIEMLNGANLGKAVVTA", "soluble on expression in E. coli": "soluble"}
{"sequence": "MTEKVSRFPGVFPLIVIGVPGSVDKTHKKLAFAPNLNRWRDIDVEKYFKVFEVYLENDANLAALAEMMRNKHFGDRKNIVYILVREGIGGGIIIEGKLYKGSFNAAGEIGHMKMYDRGPCFCGRVGCWEANTSISHCVRQYEKKKPLPGNTMYEKFETLCRIYEEDPLAKEVLDEFTGILIDGIVNLVNILSPEIVIVGGEGVFLPESVFEVIVSETRRQVHPMDKEVSVEKGSLSNKEVVLEGTSILSSMMISERLV", "soluble on expression in E. coli": "soluble"}
{"sequence": "MTGALNQAQKTPWRYGFLNLMRRVDAQLCDTPAGSIWQPRMEKFRLGQTPTMTFAPREIAQVSWQDGRLHLSLYSLGLWGPNGPLPLHYTELALNRSESRHDPTLVHFSNIFHHRWLTQFWQAWRSAQSAGGGLDKPEHDRFAFYIASLSGQDLRESAESPLSDHVRLAASAHLVRESRNPDGLAATLAHYFSVPFAVKEFALHWITVANDEITRLGTPAQSSVLGNGALIGQAVPDMQYKFRLIIGPLTLEDYLRFLPGGNNLPVLTELVRTFIGFEYCWEIELQLKPHAAPPAVIGGAQRLGWTAWAGKAMHDRPVTGMIFEPEHGLTH", "soluble on expression in E. coli": "not soluble"}
{"sequence": "MSLAFGLDKLVDLLKAAGEPTRFRLLALLSAGDLTVTDLTEILGQSQPRISRHLKLLTEEGLIERYQEGAWAYFRLRQDGEPAVVVRQLLGAASPSDAVLQRDSERLATVKRVRAERAQDYFSRNASAWDELRRLHVSDEAVEGALLKLVGTTPIDSLLDLGTGTGRILQLLSGIYRRAIGVDASRDMLSVARANLDKAGVGNASVRHGDILNLPLEGQDFDLIVIHQVLHFLDQPEIALSEAARMLRPGGRLIVIDLAPHSFEYLRDEHAHVRLGFSHPLMEEWMKKAGLSLERAVDLHSEKASDEALDVTIWVARDQRLLMADDVVQEAVLLRSGRAEGHHHHHH", "soluble on expression in E. coli": "soluble"}
{"sequence": "MSRNMFKLAHISDVHLGPLPRLSIQELFSKRITGFVNWHRNRRKHLFASTLDLLLDDIRTHRADHLAVTGDLVNLASGIEIRAAAAWLRALGDPADTSVVPGNHDAYVPGAYEKSMRAWYDYVRGDLAPPQWQEDRRIFPYLRVRDKVAIVGCSTAVATPPFAASGFFSARQARDTVNMLRAAGEAGLFRVVMIHHPPIRGATAFHKRMIGIRRFAAVISTGGAELVLHGHTHLNTLHWLRGQVQPVPVVGIASASQGPGSIKPPAAYNLFSIDGAPGAWELEHHHHHH", "soluble on expression in E. coli": "soluble"}
{"sequence": "MGSDKIHHHHHHMKAFDRDASEPRIGLAYGPGMAEFAARNAHLVDYIEVPFEQLRFSPAVAELQQTIPFVLHCASLSVAGFVPPDDSTVDAIERTAVQTGTPWIGEHLAYISADPVGEALGGTGEPTSLSYTLCPQLSDETVRRVVDNLAALRPHFPVPLIVENSPQYFPIPGSTMGMTDFIRAITDRCDVGLLLDLSHFLITAHNTGAEVHRELARLPLERVVEVHLSGMSVQSGTAWDDHSLPASPILFELLERLLDVARPRALTFEYNWSPYFPLSVLTTHIERARQLMGLA", "soluble on expression in E. coli": "not soluble"}
{"sequence": "MGSDKIHHHHHHMMNATPWLTVSRGTAPLLVSIPHTGIDLAGLEPRLVSPWLGRRDCDWWIDKLYDFANDLGATVVHTAISRTVIDVNRDPTGVSLYPGQTTTTLCPTDTFDGDPLYRMGEEPTPSEIDQRRETYFKPYHAALQAEIDRLRGMHEKIVLYDCHSIRSVLPRLFEGTLPVFNLGTNDGKSTDPVLQDKVAAILAATGETWVVNGRFKGGSITRGFGQPQNGVHALQMELSNRGYMREPSEKGSPENWPVPYDPTYAAPIRATLKTILETAIDWARR", "soluble on expression in E. coli": "not soluble"}
{"sequence": "GSMSTKNFRVSDGDWICPDKKCGNVNFARRTSCDRCGREKTTGPI", "soluble on expression in E. coli": "soluble"}
{"sequence": "MKLFQPSEIVTSLPTQFFASLVAKVNKVVAAGHDVINLGQGNPDQPTPQHIVKALQDAAEKTIHHKYPPFRGHESLKEAVATFYQREYDVVVNPKTEVAILFGGKAGLVELPVCFTNPGDTILVPDPGYPDYLSGVALAKAQFETMPLIAENNFLPDYTKIDDSIAERAKLMFLNYPNNPTGATASKDFFDETIHFANKHNILVVHDFAYGAIGFDGQKPVSFLQADGAKDTGIEIYTLSKTFNMAGWRIAFAVGNESVIETINLLQDHMYVSIFGAIQDAAREALLSSQSCVIDLVNSYESRRNALISACHSIGWNVDIPTGSFFAWLPVPEGYTSEQFSDILLEKAHVAVAPGVGFGEHGEGYVRVGLLHTEDRLREAINRIDKLNFFKK", "soluble on expression in E. coli": "not soluble"}
{"sequence": "MTRLTLALDVMGGDFGPSVTVPAALQALNANSQLTLLLVGNPDIITPLLAKADFEQRSRLQIIPAQSVIASDARPSQAIRASRGTSMRVALELVKEGRAEACVSAGNTGALMGLAKLLLKPLEGIERPALVTVLPHQQKGKTVVLDLGANVDCDSTMLVQFAVMGAVLAEEVVGIKNPRVALLNIGEEETKGLDSIREASLMLKTVPTINYIGYLEANELLTGKTDVLVCDGFTGNVTLKTMEGVVRMFLSLLKSQGEGKKRSWWLLLLKRWLQKSLTRRFSHLNPDQYNGACLLGLRGTVIKSHGAANQRAFAVAIEQAVQAVQRQVPQRIAARLESVYPAGFEPLDDGKGVNLRAHR", "soluble on expression in E. coli": "not soluble"}
{"sequence": "MGSDKIHHHHHHMIEKTNPSHILLPEDSIKKYILPKYNLQDAEILQIKFKDTEKQRAVYKLTLGSKKYCLKKVYYDKGELLFVYSTTEWFFRHGINVTRILPTLDNSRFVIYSGMIFILMPWIDGLKCNYDKKEDLFKASKNLAHMHKCSQKFFSIQGSSIRYGFEHIYLSNKKHFEQILSFFNKAYEINDSFSKIALNNCDLCIKLSKIALNASSRIESRNFKKSLCHLDYVNKNIIFDKNNDIWVIDFDKCKFDYSVHDISYFMRRIMKRDNTRWNSELLINMLNVYEQINPLNLDEYLYILSYLVFPQKFWKICKDYYNNLSRCNKAAFINLIKSTTKYSELHLKFAYNFSNYIEGKFNVSLNL", "soluble on expression in E. coli": "not soluble"}
{"sequence": "MGSDKIHHHHHHMTDSKCYAAIDIGSNAVRLLIKKVKNNENLANKRLSKVMLLRVPLRLGFDVFSLGEVSDAKVMKLRRLMKAFRQLMKIYEVINYRACATSAMRDAQNGKSVIKKVWKDTGINIEVINGQEEARMIYNNHIECLEDRAGNYIYVDVGGGSTEINFLINGELVQSLSYNIGTVRMLSNSVREGSWEQMKSDLTRLTADFQGVNIIGSGGNINKLYRLADKKDKKQSRLPITSLQELYDKLKVLTLEQRMEEFNLKTDRADVIVPAAGIFLIIAGIVKAEYIHVPVIGLADGIIDNLYAIDLKTE", "soluble on expression in E. coli": "not soluble"}
